Test results reported in patent publication US20220403009A1.

Key:
[1] = biological target: SARS-CoV-2 spike protein on pseudovirus (SARS-CoV-2) (UniProt P0DTC2); assay: cell-based or functional assay
[2] = biological target: SARS-CoV-1 spike protein on HIV-based pseudovirus (SARS-CoV) (UniProt P59594); assay: cell-based or functional assay

| Substance | IC50, SARS-CoV-2 pseudovirus neutralization [1] [mg/mL] | Fold Over IgG1 (CoV-1) By Molar [2] [fold] | Fold Over IgG1 (CoV-1) By Weight [2] [fold] | IC50, SARS-CoV-1 pseudovirus neutralization [2] [µg/mL] |
| --- | --- | --- | --- | --- |
| CR3014 IgM + J (antibody) | > 100 | > 80 | > 13 | < 0.0051 |
| CR3014 IgG1 (antibody) | > 100 | 1 | 1 | 0.068 |
